Data set [1] concerns the molecule itself. The data set can be described thus: sizes of crystals observed in the pellet; negative-stain EM (self-assembly).
Data set [2] concerns the molecule itself. The data set is described as follows: self-assembly of fusion trimers; negative-stain EM of E. coli pellet. As to the method:
Synthetic genes of each fusion were obtained and protein was expressed in Escherichia coli cells using a standard T7 based expression vector (Table 2). The protein expression was verified by sodium dodecyl sulfate polyacrylamide gel electrophoresis (SDS-PAGE) after separation of the soluble and insoluble cell portions. Samples of observed protein in the cellular pellets were analyzed for array formation by negative-stain Transmission Electron Microscopy (TEM). […] It is worth noting that 5/7 of the remaining fusions either shared a similar sequence and unknown but potentially similar structures (2 unpublished binding proteins) or were either the same molecular weight or much larger than the p3Z-42 monomer protein (3 proteins between ˜25-35 kDa).
On the basis of these initial hits, the general properties of the proteins that crystallized, specifically molecular weight, were evaluated. 16 further fusions were identified based either on smaller molecular weight sizes (13 proteins between 9 and 13 kDa) or other important targets close to this molecular weight range (3 proteins between 14 and 17 kDa). These second screen fusions were genetically fused and checked for array formation as before. […]

B1: p6_9H_KDKCKXX (designed binder)
chain: MGFQGPLGSHMTISPKEKEKIAIHEAGHDLMGLVSDDDDKVHKISIIPRGMALGVTQQLPIEDKHIYDKKDLYNKILVLLGGRAAEEVFFGKDGITTGAENDLQRATDLAYRMVSMWGMSDKVGPIAIRRVANPFLGGMTTAVDTSPDLLREIDEEVKRIITEQYEKAKAIVEEYKLPLKFVVAALLHSETILCSLFAEVFKTFGIELKDKCK
notes: p6_9H with 33 C-terminal residues (including 6xHis) removed
On to B1, for which the binding result in data set [1] is listed as “binds”.

B2: p6_9 (designed binder, not shown: small tags and cut ends)
chain: MGFQGPLGSHMTISPKEKEKIAIHEAGHDLMGLVSDDDDKVHKISIIPRGMALGVTQQLPIEDKHIYDKKDLYNKILVLLGGRAAEEVFFGKDGITTGAENDLQRATDLAYRMVSMWGMSDKVGPIAIRRVANPFLGGMTTAVDTSPDLLREIDEEVKRIITEQYEKAKAIVEEYKLPLKFVVAALLESETILCSLFAEVFKTFGIELKDKCKKEELFDKDRKSEENKELKSEEVKEEVV
notes: Alpha helical hexamer (C6), layer group P 6; Carries A29D from gene synthesis; also called Original Design p6_9 (Control); precursor to p6_9H
Regarding B2, the binding result in data set [1] is listed as “binds”.

B3: p6_9 T203V (designed binder, not shown: small tags and cut ends)
chain: MGFQGPLGSHMTISPKEKEKIAIHEAGHDLMGLVSDDDDKVHKISIIPRGMALGVTQQLPIEDKHIYDKKDLYNKILVLLGGRAAEEVFFGKDGITTGAENDLQRATDLAYRMVSMWGMSDKVGPIAIRRVANPFLGGMTTAVDTSPDLLREIDEEVKRIITEQYEKAKAIVEEYKLPLKFVVAALLESETILCSLFAEVFKVFGIELKDKCKKEELFDKDRKSEENKELKSEEVKEEVV
Take B3: the binding result in data set [1] is on record as “binds”.

B4: p6_9 A184S (designed binder, not shown: small tags and cut ends)
chain: MGFQGPLGSHMTISPKEKEKIAIHEAGHDLMGLVSDDDDKVHKISIIPRGMALGVTQQLPIEDKHIYDKKDLYNKILVLLGGRAAEEVFFGKDGITTGAENDLQRATDLAYRMVSMWGMSDKVGPIAIRRVANPFLGGMTTAVDTSPDLLREIDEEVKRIITEQYEKAKAIVEEYKLPLKFVVSALLESETILCSLFAEVFKTFGIELKDKCKKEELFDKDRKSEENKELKSEEVKEEVV
Regarding B4, the binding result in data set [1] was “binds”.

B5: p6_9 E199L (designed binder, not shown: small tags and cut ends)
chain: MGFQGPLGSHMTISPKEKEKIAIHEAGHDLMGLVSDDDDKVHKISIIPRGMALGVTQQLPIEDKHIYDKKDLYNKILVLLGGRAAEEVFFGKDGITTGAENDLQRATDLAYRMVSMWGMSDKVGPIAIRRVANPFLGGMTTAVDTSPDLLREIDEEVKRIITEQYEKAKAIVEEYKLPLKFVVAALLESETILCSLFALVFKTFGIELKDKCKKEELFDKDRKSEENKELKSEEVKEEVV
Turning to B5, the binding result in data set [1] is recorded as “binds”.

B6: p6_9 L193T, A198V (designed binder, not shown: small tags and cut ends)
chain: MGFQGPLGSHMTISPKEKEKIAIHEAGHDLMGLVSDDDDKVHKISIIPRGMALGVTQQLPIEDKHIYDKKDLYNKILVLLGGRAAEEVFFGKDGITTGAENDLQRATDLAYRMVSMWGMSDKVGPIAIRRVANPFLGGMTTAVDTSPDLLREIDEEVKRIITEQYEKAKAIVEEYKLPLKFVVAALLESETITCSLFVEVFKTFGIELKDKCKKEELFDKDRKSEENKELKSEEVKEEVV
Regarding B6, the binding result in data set [1] is recorded as “binds”.

B7: p6_9 E188H, F218Y (designed binder, not shown: small tags and cut ends)
chain: MGFQGPLGSHMTISPKEKEKIAIHEAGHDLMGLVSDDDDKVHKISIIPRGMALGVTQQLPIEDKHIYDKKDLYNKILVLLGGRAAEEVFFGKDGITTGAENDLQRATDLAYRMVSMWGMSDKVGPIAIRRVANPFLGGMTTAVDTSPDLLREIDEEVKRIITEQYEKAKAIVEEYKLPLKFVVAALLHSETILCSLFAEVFKTFGIELKDKCKKEELYDKDRKSEENKELKSEEVKEEVV
notes: p6_9H (which already carries E188H) with F218Y
With B7, the binding result in data set [1] is “binds”.

B8: p6_9 E188H, L193T, A198V (designed binder, not shown: small tags and cut ends)
chain: MGFQGPLGSHMTISPKEKEKIAIHEAGHDLMGLVSDDDDKVHKISIIPRGMALGVTQQLPIEDKHIYDKKDLYNKILVLLGGRAAEEVFFGKDGITTGAENDLQRATDLAYRMVSMWGMSDKVGPIAIRRVANPFLGGMTTAVDTSPDLLREIDEEVKRIITEQYEKAKAIVEEYKLPLKFVVAALLHSETITCSLFVEVFKTFGIELKDKCKKEELFDKDRKSEENKELKSEEVKEEVV
notes: p6_9H (which already carries E188H) with L193T and A198V
B8: the binding result in data set [1] was “binds”.

B9: p6_9H (designed binder, not shown: small tags and cut ends)
chain: MGFQGPLGSHMTISPKEKEKIAIHEAGHDLMGLVSDDDDKVHKISIIPRGMALGVTQQLPIEDKHIYDKKDLYNKILVLLGGRAAEEVFFGKDGITTGAENDLQRATDLAYRMVSMWGMSDKVGPIAIRRVANPFLGGMTTAVDTSPDLLREIDEEVKRIITEQYEKAKAIVEEYKLPLKFVVAALLHSETILCSLFAEVFKTFGIELKDKCKKEELFDKDRKSEENKELKSEEVKEEVV
notes: Hexamer (C6), layer group P 6; also called E188H (p6_9H)
For the protein B9, the binding result in data set [1] was “binds”.

B10: p6_9 E188R (designed binder, not shown: small tags and cut ends)
chain: MGFQGPLGSHMTISPKEKEKIAIHEAGHDLMGLVSDDDDKVHKISIIPRGMALGVTQQLPIEDKHIYDKKDLYNKILVLLGGRAAEEVFFGKDGITTGAENDLQRATDLAYRMVSMWGMSDKVGPIAIRRVANPFLGGMTTAVDTSPDLLREIDEEVKRIITEQYEKAKAIVEEYKLPLKFVVAALLRSETILCSLFAEVFKTFGIELKDKCKKEELFDKDRKSEENKELKSEEVKEEVV
Take B10: the binding result in data set [1] is reported as “binds”.

B11: p6_9 E188H, cut 6xHis (designed binder)
chain: MGFQGPLGSHMTISPKEKEKIAIHEAGHDLMGLVSDDDDKVHKISIIPRGMALGVTQQLPIEDKHIYDKKDLYNKILVLLGGRAAEEVFFGKDGITTGAENDLQRATDLAYRMVSMWGMSDKVGPIAIRRVANPFLGGMTTAVDTSPDLLREIDEEVKRIITEQYEKAKAIVEEYKLPLKFVVAALLHSETILCSLFAEVFKTFGIELKDKCKKEELFDKDRKSEENKELKSEEVKEEVV
notes: p6_9H with the 6xHis tag removed
Consider B11, for which the binding result in data set [1] was “binds”.

B12: p6_9 E188H, D29A (designed binder, not shown: small tags and cut ends)
chain: MGFQGPLGSHMTISPKEKEKIAIHEAGHALMGLVSDDDDKVHKISIIPRGMALGVTQQLPIEDKHIYDKKDLYNKILVLLGGRAAEEVFFGKDGITTGAENDLQRATDLAYRMVSMWGMSDKVGPIAIRRVANPFLGGMTTAVDTSPDLLREIDEEVKRIITEQYEKAKAIVEEYKLPLKFVVAALLHSETILCSLFAEVFKTFGIELKDKCKKEELFDKDRKSEENKELKSEEVKEEVV
notes: p6_9H with the gene-synthesis mutation A29D reverted
Consider B12, for which the binding result in data set [1] is on record as “binds”.

B13: p6_9 L193T, S189K (designed binder, not shown: small tags and cut ends)
chain: MGFQGPLGSHMTISPKEKEKIAIHEAGHDLMGLVSDDDDKVHKISIIPRGMALGVTQQLPIEDKHIYDKKDLYNKILVLLGGRAAEEVFFGKDGITTGAENDLQRATDLAYRMVSMWGMSDKVGPIAIRRVANPFLGGMTTAVDTSPDLLREIDEEVKRIITEQYEKAKAIVEEYKLPLKFVVAALLEKETITCSLFAEVFKTFGIELKDKCKKEELFDKDRKSEENKELKSEEVKEEVV
As to B13, the binding result in data set [1] is listed as “binds”.

B14: p6_9HM (designed binder, not shown: small tags and cut ends)
chain: MGFQGPLGSHMTISPKEKEKIAIHEAGHDLMGLVSDDDDKVHKISIIPRGMALGVTQQLPIEDKHIYDKKDLYNKILVLLGGRAAEEVFFGKDGITTGAENDLQRATDLAYRMVSMWGMSDKVGPIAIRRVANPFLGGMTTAVDTSPDLLREIDEEVKRIITEQYEKAKAIVEEYKLPLKFVVAALLHSETILCSLFAEMFKTFGIELKDKCKKEELFDKDRKSEENKELKSEEVKEEVV
notes: p6_9H (which already carries E188H) with V200M; also called E188H, V200M (p6_9HM)
In the case of B14, in data set [1], the binding result was “binds”.

B15: p6_9 L193T (designed binder, not shown: small tags and cut ends)
chain: MGFQGPLGSHMTISPKEKEKIAIHEAGHDLMGLVSDDDDKVHKISIIPRGMALGVTQQLPIEDKHIYDKKDLYNKILVLLGGRAAEEVFFGKDGITTGAENDLQRATDLAYRMVSMWGMSDKVGPIAIRRVANPFLGGMTTAVDTSPDLLREIDEEVKRIITEQYEKAKAIVEEYKLPLKFVVAALLESETITCSLFAEVFKTFGIELKDKCKKEELFDKDRKSEENKELKSEEVKEEVV
With B15, the binding result in data set [1] is “binds”.

B16: p6_9 L193T, A198V, S189K (designed binder, not shown: small tags and cut ends)
chain: MGFQGPLGSHMTISPKEKEKIAIHEAGHDLMGLVSDDDDKVHKISIIPRGMALGVTQQLPIEDKHIYDKKDLYNKILVLLGGRAAEEVFFGKDGITTGAENDLQRATDLAYRMVSMWGMSDKVGPIAIRRVANPFLGGMTTAVDTSPDLLREIDEEVKRIITEQYEKAKAIVEEYKLPLKFVVAALLEKETITCSLFVEVFKTFGIELKDKCKKEELFDKDRKSEENKELKSEEVKEEVV
For the protein B16, the binding result in data set [1] is recorded as “binds”.

B17: p6_9 L193T, A198V, S189K, cut 6xHis (designed binder)
chain: MGFQGPLGSHMTISPKEKEKIAIHEAGHDLMGLVSDDDDKVHKISIIPRGMALGVTQQLPIEDKHIYDKKDLYNKILVLLGGRAAEEVFFGKDGITTGAENDLQRATDLAYRMVSMWGMSDKVGPIAIRRVANPFLGGMTTAVDTSPDLLREIDEEVKRIITEQYEKAKAIVEEYKLPLKFVVAALLEKETITCSLFVEVFKTFGIELKDKCKKEELFDKDRKSEENKELKSEEVKEEVV
With B17, the binding result in data set [1] is recorded as “binds”.

B18: p3Z-42 Human Glutaredoxin fusion (designed binder)
chain: MGAGTAQEFVNCKIQPGKVVVFIKPTCPYCRRAQEILSQLPIKQGLLEFVDITATNHTNEIQDYLQQLTGARTVPRVFIGKDCIGGCSDLVSLQQSGELLTRLKQIGALQGSGSGGMHNNRLQLSRLERVYQSEQAEKLLLAGVMLRDPARFDLRGSLTHGRDVEIDTNVIIEGNVSLGNRVKIGTGCVIKNSAIGDDCEISPYTVVEDAVLAAACTIGPFARLRPGAVLLEGAHVGNFVEMKKAVLGKGSKAGHLTYLGDAAIGDNVNIGAGTITCNYDGANKFTTIIGDDVFVGSDTQLVAPVSVGKGATIAAGTTVTRNVGANALAISRVPQTQKEGWRRPVKKK
With B18, the binding result in data set [2] is on record as “binds”.

Values taken from patent US20160369264A1 (HOWARD HUGHES MEDICAL INSTITUTE, published 2016).
